Patent US20100041597A1 (published 2010)

Legend:
[1] = biological target: T1, PKC-βII (purified isoform) (Homo sapiens (Human), UniProt P05771 2-621); experiment: competitive ELISA on purified PKC-βII vs anti-PKC-βII Ab; PRE 100 µM
T1 construct: also called PKC-beta II
Protocol: (§1) Greiner 96 well ELISA plates were coated with the appropriate PKC isoform diluted in PBSN (PBS with Calcium/Magnesium+0.05% Sodium azide w/w). 50 μL/well at 250 ng/mL was used. Control wells contained PBSN only. Plates were incubated overnight at 4° C.
(§2) The plates were washed 3 times with 200 μL of dH₂O per well, then 100 μL of blocking solution was added per well and the plate incubated for 1 h at 37° C. The washing steps with dH₂O were repeated and 50 μL of the appropriate PRE solution (PRE stock solution [20 mM in DMSO] diluted in PBSN) was added and the plate incubated for 1 h at room temperature.
(§3) 50 μL of 1:1000 dilution of Alkaline Phosphatase (AP) conjugated antibody (anti-rabbit for all except zeta, which was anti-goat) was then added and the plate incubated for 1 h at room temperature. Washing with dH₂O was then repeated. Finally, 100 μL of pNPP solution in pNPP buffer (2 mM MgCl₂, 100 mM Sodium bicarbonate in water, pH 9.8) was added to all wells and incubated for 8 minutes for α, βI, βII ε, and ζ, or for 15-20 mins for […] (until sufficient coloration is observed). The reaction was stopped by addition of Stop solution (2N NaOH) and the absorbance at 405 nm was read on a Galaxy Plate reader.

PKC-δ (purified isoform) [2] = biological target: T2, PKC-δ (purified isoform) (Homo sapiens (Human), UniProt Q05655 1-676); experiment: competitive ELISA on purified PKC-δ vs anti-PKC-δ Ab; PRE 200 µM
T2 construct: also called PKC-delta; PKCdelta
Protocol: as §1, §2, §3

[3] = biological target: T3, PKC-βI (purified isoform) (Homo sapiens (Human), UniProt P05771 2-671); experiment: competitive ELISA on purified PKC-βI vs anti-PKC-βI Ab; PRE 200 µM
T3 construct: also called PKC-beta I
Protocol: as §1, §2, §3

[4] = biological target: T3, PKC-βI (purified isoform); experiment: competitive ELISA on purified PKC-βI vs anti-PKC-βI Ab; PRE 50 µM
Protocol: as §1, §2, §3

[5] = biological target: T3, PKC-βI (purified isoform); experiment: competitive ELISA on purified PKC-βI vs anti-PKC-βI Ab; PRE 100 µM
Protocol: as §1, §2, §3

PKC-δ (purified isoform) [6] = biological target: T2, PKC-δ (purified isoform); experiment: competitive ELISA on purified PKC-δ vs anti-PKC-δ Ab; PRE 100 µM
Protocol: as §1, §2, §3

[7] = biological target: T1, PKC-βII (purified isoform); experiment: competitive ELISA on purified PKC-βII vs anti-PKC-βII Ab; PRE 200 µM
Protocol: as §1, §2, §3

[8] = biological target: T1, PKC-βII (purified isoform); experiment: competitive ELISA on purified PKC-βII vs anti-PKC-βII Ab; PRE 50 µM
Protocol: as §1, §2, §3

PKC-δ (purified isoform) [9] = biological target: T2, PKC-δ (purified isoform); experiment: competitive ELISA on purified PKC-δ vs anti-PKC-δ Ab; PRE 50 µM
Protocol: as §1, §2, §3

[10] = biological target: T4, PKC-α (endogenous, human cell lysates and cells) (human, UniProt P17252 2-672); experiment: anti-PKC-α immunofluorescence, V5E-transfected IMR-32 cells loaded with PRE (label on PKC-α and V5E); control with endocytosis reagent 113
T4 construct: Endogenous protein of human cell lysates, on Western blot membranes (denatured) or in fixed cells; also called PKC-alpha; PKC-A
Description: Neuroblastoma cells from the IMR-32 cell line were stably transfected with a vector containing the V5E sequence of PKC-α as outlined above in Example 13. The V5E sequence is part of the antigenic amino acid sequence that is used to raise the commercially available anti-PKC-α isoform-specific antibody.
The peptides PRE 1, 2, 3, 4, 5, 6, 7, 8, 9, 10, 11, 12 and 13 (see Table 3) were incorporated into the transfected IMR-32 cells via pinocytic endocytosis (Molecular Probes) according to the supplier's recommendations. Following fixation and permeabilization, PKC-α was detected using an Alexa fluor secondary antibody (as described above in Example 8).

[11] = biological target: T5, PKC-ι (endogenous, human cell extracts) (human, UniProt P41743 2-596); experiment: Western-blot competition on cell extracts against the anti-PKC-ι primary antibody; band densitometry
T5 construct: also called PKC-iota
T5 sequence (looked up): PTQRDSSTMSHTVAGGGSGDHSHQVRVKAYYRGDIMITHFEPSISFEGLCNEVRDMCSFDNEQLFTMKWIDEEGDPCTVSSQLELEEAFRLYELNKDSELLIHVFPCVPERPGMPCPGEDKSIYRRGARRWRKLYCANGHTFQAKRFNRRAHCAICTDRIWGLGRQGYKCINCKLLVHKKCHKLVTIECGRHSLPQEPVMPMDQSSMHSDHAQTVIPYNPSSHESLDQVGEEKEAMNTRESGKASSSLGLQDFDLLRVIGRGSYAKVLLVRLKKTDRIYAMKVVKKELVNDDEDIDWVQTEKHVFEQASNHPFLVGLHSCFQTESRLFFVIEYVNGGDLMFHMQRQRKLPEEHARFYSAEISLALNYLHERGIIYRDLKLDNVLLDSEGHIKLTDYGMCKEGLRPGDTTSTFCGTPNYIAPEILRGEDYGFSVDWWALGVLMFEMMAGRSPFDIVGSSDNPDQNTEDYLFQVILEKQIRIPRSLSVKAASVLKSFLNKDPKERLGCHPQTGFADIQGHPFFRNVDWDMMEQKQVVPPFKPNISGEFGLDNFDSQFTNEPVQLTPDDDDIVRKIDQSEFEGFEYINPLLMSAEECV
Protocol: Binding efficiency and specificity of the peptides PRE 2, 3, 4, 5, 6, 7, 8, 9, 10, 11, 12 and 13 (see Table 3) was also tested using cytoplasmic extracts from different cell lines expressing appropriate PKC isoforms as described for Example 1. Briefly, the protein cytoplasmic extracts were separated by electrophoresis and transferred onto nitrocellulose membranes by standard Western blotting procedures. The bands on the Western blots were detected with matching primary antibodies and alkaline phosphatase conjugated secondary antibody. The bands were then scanned and the relative density measurements obtained.
This procedure to assess the binding characteristics of the PREs is based on competition binding of the PRE with the primary anti-isoform PKC specific antibodies. The lower the measured band density, the greater the binding of the PRE to the PKC isoform. The PREs were added at 10 and 20 times (10×, 20×) the primary antibody concentration, according to classical competition between antigenic peptide and primary antibody. The following cell lines (obtained from the ATCC) were used: H661—NCI human lung carcinoma NSCLC; MDAMB231—human highly invasive breast cancer cell line from pleural effusion; LS180—human colon adenocarcinoma; LnCAP—human prostate adenocarcinoma; CCD16Lu—human lung fibroblasts; Du145—human prostate carcinoma brain metastasis, and T24—human bladder carcinoma.

[12] = biological target: T1, PKC-βII (purified isoform); experiment: summary grade, purified isoform ELISA

T3 sequence (P05771 2-671 limits assumed): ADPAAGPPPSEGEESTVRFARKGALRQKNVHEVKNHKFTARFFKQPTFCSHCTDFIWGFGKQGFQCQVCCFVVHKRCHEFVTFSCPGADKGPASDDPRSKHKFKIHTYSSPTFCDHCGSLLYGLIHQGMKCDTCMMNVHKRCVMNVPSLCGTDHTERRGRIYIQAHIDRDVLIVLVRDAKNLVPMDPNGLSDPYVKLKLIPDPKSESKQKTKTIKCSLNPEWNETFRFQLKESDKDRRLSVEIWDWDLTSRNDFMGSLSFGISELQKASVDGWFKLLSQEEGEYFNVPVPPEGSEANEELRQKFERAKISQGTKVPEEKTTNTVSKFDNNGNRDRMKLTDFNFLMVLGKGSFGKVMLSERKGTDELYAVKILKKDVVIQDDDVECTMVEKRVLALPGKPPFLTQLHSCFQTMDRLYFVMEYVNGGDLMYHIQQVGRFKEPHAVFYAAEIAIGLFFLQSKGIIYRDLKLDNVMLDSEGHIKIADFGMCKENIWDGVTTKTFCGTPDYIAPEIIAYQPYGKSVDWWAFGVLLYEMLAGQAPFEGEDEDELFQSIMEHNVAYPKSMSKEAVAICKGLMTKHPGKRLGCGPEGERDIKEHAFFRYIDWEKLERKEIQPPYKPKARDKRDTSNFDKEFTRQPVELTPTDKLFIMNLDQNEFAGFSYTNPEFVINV
T2 sequence (Q05655 whole entry, stated change not applied, canonical isoform): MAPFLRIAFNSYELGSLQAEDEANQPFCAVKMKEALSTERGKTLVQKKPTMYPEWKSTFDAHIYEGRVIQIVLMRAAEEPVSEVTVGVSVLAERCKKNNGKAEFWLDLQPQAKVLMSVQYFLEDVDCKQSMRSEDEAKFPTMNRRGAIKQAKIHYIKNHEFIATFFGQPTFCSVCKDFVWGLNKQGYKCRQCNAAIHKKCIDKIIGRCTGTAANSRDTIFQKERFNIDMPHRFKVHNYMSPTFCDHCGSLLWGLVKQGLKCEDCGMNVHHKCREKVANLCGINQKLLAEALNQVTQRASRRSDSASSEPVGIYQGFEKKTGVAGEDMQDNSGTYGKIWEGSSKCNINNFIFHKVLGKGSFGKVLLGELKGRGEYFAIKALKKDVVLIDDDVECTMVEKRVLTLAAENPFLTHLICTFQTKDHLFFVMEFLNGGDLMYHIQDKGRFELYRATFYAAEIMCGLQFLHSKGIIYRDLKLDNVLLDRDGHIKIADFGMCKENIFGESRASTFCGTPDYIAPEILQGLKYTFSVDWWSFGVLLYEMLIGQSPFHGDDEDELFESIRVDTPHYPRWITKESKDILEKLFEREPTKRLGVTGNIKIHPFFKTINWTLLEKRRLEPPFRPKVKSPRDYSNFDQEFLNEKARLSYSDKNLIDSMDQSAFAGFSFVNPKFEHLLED
T1 sequence (P05771 other isoform, or with tags, fused parts or gaps limits assumed): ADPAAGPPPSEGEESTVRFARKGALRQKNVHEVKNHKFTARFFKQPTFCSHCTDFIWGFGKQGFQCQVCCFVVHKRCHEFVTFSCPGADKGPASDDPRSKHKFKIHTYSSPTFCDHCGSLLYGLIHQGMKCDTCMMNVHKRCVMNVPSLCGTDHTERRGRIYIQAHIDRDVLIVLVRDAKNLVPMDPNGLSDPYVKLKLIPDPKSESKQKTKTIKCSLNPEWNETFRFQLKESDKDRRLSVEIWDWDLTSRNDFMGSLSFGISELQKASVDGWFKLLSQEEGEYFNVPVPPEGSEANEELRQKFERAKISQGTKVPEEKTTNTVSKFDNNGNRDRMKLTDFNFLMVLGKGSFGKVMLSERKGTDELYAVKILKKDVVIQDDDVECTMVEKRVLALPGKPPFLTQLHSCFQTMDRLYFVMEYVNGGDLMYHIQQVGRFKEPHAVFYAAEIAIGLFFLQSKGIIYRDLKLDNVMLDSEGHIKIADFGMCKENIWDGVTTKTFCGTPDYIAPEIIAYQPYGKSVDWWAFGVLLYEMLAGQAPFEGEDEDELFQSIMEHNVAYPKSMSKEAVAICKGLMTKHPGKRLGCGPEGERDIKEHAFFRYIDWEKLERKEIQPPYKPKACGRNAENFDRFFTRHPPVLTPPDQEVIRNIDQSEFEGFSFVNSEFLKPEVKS

B1: PRE 1 (peptide)
peptide: RRKKGGKDFVVKR
notes: Synthetic peptide, solid phase synthesis; termini given free; also called peptide PRE 1
binding capacity (%) [1]: 0%
binding capacity (%) (PKC-δ (purified isoform) [2]): 49.4%
binding capacity (%) [3]: 13.4%
binding capacity (%) [4]: 19.8%
binding capacity (%) [5]: 13.9%
binding capacity (%) (PKC-δ (purified isoform) [6]): 45.2%
binding capacity (%) [7]: 0%
binding capacity (%) [8]: 0%
binding capacity (%) (PKC-δ (purified isoform) [9]): 35.7%
Relative Fluorescence Intensity [10]: 79
binding result [11]: no binding (tested: 20X the primary antibody concentration)
binding result [12]: no binding (tested: 200 µM)
